Source: patent publication US7419813B2, “Fructosyl peptide oxidase” (Kikkoman Corporation, priority 2001, dated 2008)

Tests used:
[1] = Km value for fructosyl valyl histidine (Lineweaver-Burk plot); type: biochemical; settings: purified oxidase
Procedure: In the above-described activity assay, the activity of the oxidase was monitored using different concentrations of fructosyl valyl histidine (substrate), and Michaelis constant (Km) was determined from a Lineweaver-Burk plot.
In the above-described activity assay, activity was monitored using different concentrations of fructosyl valyl histidine (substrate), and Michaelis constant (Km) was determined from a Lineweaver-Burk plot.

[2] = type: physicochemical; settings: pH 8
Procedure: For example, 200 mM potassium phosphate buffer (pH 8.0) is used for a treatment at 45° C. for 10 minutes to determine the remaining activities of the oxidases of the invention. The oxidases of the invention having high stability at a high temperature range are particularly preferable for industrial use. The oxidases of the invention may, for example, have a remaining activity of 50% or higher, preferably 70% or higher, and more preferably 80% or higher under the above-described conditions. For example, 200 mM potassium phosphate buffer (pH 8.0) is used for a treatment at 45° C. for 10 minutes. Then, the remaining activities of the enzymes of the invention are determined. The oxidases of the invention having high stability at a high temperature range are particularly preferable for industrial use. The oxidases of the invention that have less action on ε-fructosyl lysine may, for example, have a remaining activity of 50% or higher, preferably 70% or higher, more preferably 80% or higher under the above-described conditions. […] Next, the physiochemical properties of these oxidases were determined. […] Each crude enzyme sample was heat-treated at 45° C. for 10 minutes, and then its activity for fructosyl valyl histidine was determined and compared to the activity before treatment. […]

[3] = Identifying reaction product by HPLC (TSK gel Amide-80); type: biochemical; settings: 2 mM fructosyl valyl histidine, 0.003U oxidase, 37° C. for 2 hours
Procedure: (§1) Reaction solution was assayed by HPLC to identify reaction products. First, 50 μl of reaction solution (2 mM fructosyl valyl histidine, 5 mM phosphate buffer (pH 8.0), 0.003U of the inventive oxidase) was incubated at 37° C. for 2 hours, diluted (10×) and then assayed for the reaction products in a TSK gel Amide-80 column (available from Tosoh Co., Ltd.). As a control, the same procedure was repeated except for using a buffer instead of the enzyme.
as §1, with “Similarly,” for “As”, “control sample” for “control, the same procedure”, “obtained by” for “repeated except for”, “enzyme and assayed.” for “enzyme.”

B1: Eupenicillium terrenum ATCC 18547: fructosyl peptide oxidase produced by Eupenicillium terrenum ATCC 18547 with less action on ε-fructosyl lysine; amino acid sequence SEQ ID NO: 3 (protein, listed as Eupenicillium terrenum)
chain: MAHSRASTKVVVVGGGGTIGSSTALHLIRSGYTPSNITVLDVYKTPSLQSAGHDLNKIMGIRLRNGPDLQLSLESLDMWQNDELFKPFFHQVGMIDCSSSKEGIENLRRKYQTLLDAGIGLEKTNVWLESEDEILAKAPNFTREQVKGWKGLFCTDGGWLAAAKAINAIGIFLQDKGVKFGFGGAGTFQQPLFAADGKTCIGLETTDGTKYFADKVVLAAGAWSPTLVDLEDQCVSKAWVFAHIQLTPKEADAYKNVPVVYDGEYGFFFEPNEYGVIKVCDEFPGFSRFKLHQPYGAASPKMISVPRSHAKHPTDTYPDASEVTIRKAIARFLPEFKDKELFNRTMCWCTDTADANLLICEHPKWKNFILATGDSGHSFKLLPNIGKHVVELLEGSLSQEMAGAWRWRPGGDALRSRRGAPAKDLAEMPGWKHDAHL
Km [1]: 4.25 mM
remaining activity following heat treatment at 45° C. for 10 minutes [2]: approximately 100%
reaction product identified by HPLC [3]: a peak was detected only for valyl histidine
